Data reported in patent US20160002672A1, “PRODUCTION OF ISOPRENE, ISOPRENOID, AND ISOPRENOID PRECURSORS USING AN ALTERNATIVE LOWER MEVALONATE PATHWAY” (DANISCO US INC., priority 2012, published 2016).
“And” between values parts separate entries of the source, which are not always exact repeats. Identical values can stand only once.

B1: S378Pa3-2 PMevDC: phosphomevalonate decarboxylase isolated from a soil metagenomic library, SEQ ID NO: 18 (protein)
chain: MDYYYRVINNNEIPMKSPEFLEVSALAHPNIAFIKYWGNRDNDLRLPCNGSLSMNLSGLETKTSVQFDPSLSADQFKLSGKPIEWDALRRVSDFLEIVRDLAGISFFAKVESENSFPSGAGIASSASAFAALALAASKAAGLSLDEEALSRLARRGSGSACRSIPDGFVEWQAGSTDQDSFAWSIAPADHWDLVDLICVLNSEHKTVGSTGGHALASTSDLHLLRQERVEERIEICRKAILDRDFEHFASVVEEDSNLMHAVMRTSKPPLNYWLPETEVILWKVIHWRKKGIPVCSTVDAGPNVHVLTLSSEAEKVEALLKECPGVQSIFKARAGQGAQLI
modifications: Isolated from a metagenomic library constructed from soil samples
B2: Herpetosiphon PMevDC: Herpetosiphon aurantiacus phosphomevalonate decarboxylase, SEQ ID NO: 16, Genbank YP_001544383 (protein, listed as Herpetosiphon aurantiacus)
chain: MKQLSHAATAVACANIAFIKYWGQHDSQLTLPTNGSISMNLDGCLTETTVQCLPEAVDDSVWLALSGGEEVQAKGRQFERVIQQIERLRQLAGVTERVEVRSRNNFPSDAGIASSAAAFAALTRAAASAFRLELDEAELSRLTRLSGSGSACRSIPAGFVEWYNDGTHAGSYAAQIAPPEHWNLVDIVAVISTEAKHVASTSGHSVATTSPYFSVRLEGIEQRLADVRQGILERDIERLGRASEADAMSMHVIAMTAQPSTMYWLPGTLAVMQAVQRWRAQDNLQSYWTIDAGPNVHVICEAKDAPEVEARLCELDAVQWTIVNGAGPEARLVG
B3: S. cerevisiae MVD: Mevalonate decarboxylase (MVD) from Saccharomyces cerevisiae used as a reference (protein, UniProt P32377 1-396, looked up)
Diphosphomevalonate …: MTVYTASVTAPVNIATLKYWGKRDTKLNLPTNSSISVTLSQDDLRTLTSAATAPEFERDTLWLNGEPHSIDNERTQNCLRDLRQLRKEMESKDASLPTLSQWKLHIVSENNFPTAAGLASSAAGFAALVSAIAKLYQLPQSTSEISRIARKGSGSACRSLFGGYVAWEMGKAEDGHDSMAVQIADSSDWPQMKACVLVVSDIKKDVSSTQGMQLTVATSELFKERIEHVVPKRFEVMRKAIVEKDFATFAKETMMDSNSFHATCLDSFPPIFYMNDTSKRIISWCHTINQFYGETIVAYTFDAGPNAVLYYLAENESKLFAFIYKLFGSVPGWDKKFTTEQLEAFNHQFESSNFTARELDLELQKDVARVILTQVGSGPQETNESLIDAKTGLPKE
B4: H. aurantiacus IPK: Herpetosiphon aurantiacus isopentenyl phosphate kinase, SEQ ID NO: 19, Genbank YP_001545053 (protein, listed as Herpetosiphon aurantiacus)
chain: MNKPIFIKLGGSMLTDKTTAERLVDQTLKQVVTDLSAWRQAHPNQPILLGHGGGSFGHYWAERYQTAQGIINEQSWWGVARVADAMARLNRAVVGACLDADLPAIGIQPMASSLANAGEIQQIGSQPLATLLAAGTIPVIYGDVLLDVAQGCTIASTERIFSALVGPLQPTQIILLGEQAVYDADPRQHADAQPIPLINRTNYATIIARLGGSHGVDVTGGMRNKVEAMWQLVQQAPQLEIWICGPQQLQSALSGQLNGPGTIIKLD

Assays:
[1] = In vitro metabolite measurement, substrate conversion by crude E. coli lysate, substrate MVPP; assay type: biochemical; conditions: crude extract from E. coli DH10b overexpressing S378Pa3-2
Method: (§1) In vitro assays were done with crude extracts from E. coli DH10b overexpressing pMCM2212. […] Negative control assays were done with extracts of E. coli harboring pTrcHis2b without insert. Substrates for in vitro conversions were mevalonate (MVA), mevalonate phosphate (MVP) also referred to as mevalonate 5-phosphate, mevalonate diphosphate (MVPP) also referred to as mevalonate 5-pyrophosphate, and isopentenyl phosphate (IP). Substrate conversion and product formation was analyzed by LC/MS.
(§2) Mass spectrometric analysis of metabolites was performed using a TSQ Quantim triple quadrupole instrument (Thermo Scientific). System control, data acquisition, and data analysis were done with XCalibur and LCQuan software (Thermo Scientific). About 10 μL samples were applied to a C18 Synergi MAX-RP HPLC column (150×2 mm, 4 uM, 80 A, Phenomenex) equipped with the manufacturer-recommended guard cartridge. The column was eluted with a gradient of 15 mM acetic acid+10 mM tributylamine in MilliQ-grade water (solvent A) and LCMS-grade methanol from Honeywell, Burdick & Jackson (solvent B). […] Concentrations of metabolites in cell extracts were determined based on calibration curves obtained by injection of commercial standards dissolved in 20% methanol/50 mM NH4Ac buffer (pH 7.0) to 0.5 ppm to 50 ppm final concentration. […]

[2] = Kinetic characterization of decarboxylases (coupled spectrophotometric assay), diphosphomevalonate as substrate; assay type: biochemical; conditions: 34° C., 5 mM ATP, 10-250 μM (R)-diphosphomevalonate; for kcat ± SD, Diphosphomevalonate: * using 1 mM substrate; for Km: read-out: KM ± SD, Diphosphomevalonate
Method: (§3) PMevDCs were incubated in the presence of mevalonate, phosphomevalonate, diphosphomevalonate, ATP, MgCl2 and the products of the reactions were confirmed by LC-MS. Mevalonate decarboxylase (MVD) from Saccharomyces cerevisiae was used as a reference. The catalytic activities of the decarboxylases were measured using a modified spectrophotometric assay that coupled ADP formation to pyruvate synthesis and reduction to lactate. The initial rate of disappearance of NADH was monitored at 340 nm on a SpectraMax M5 (Molecular Devices) to measure the reaction rate catalyzed by the PMevDCs. Samples for reaction rate studies contained 0.8 mM phosphoenolpyruvate, 0.05 mM DTT, 0.32 mM NADH, 10 mM MgCl2, 4 U lactate dehydrogenase, 4 U pyruvate kinase, 5 mM ATP and 10-250 μM (R)-phosphomevalonate or 10-250 μM (R)-diphosphomevalonate. All reactions were performed at 34° C. Reaction rate data was processed using Microsoft Excel and kinetic parameters were determined using Kaleidagraph.

[3] = In vitro metabolite measurement, substrate conversion by crude E. coli lysate, substrate MVA; assay type: biochemical; conditions: crude extract from E. coli DH10b overexpressing S378Pa3-2
Method: as §1, §2

[4] = SDS-PAGE analysis of His-tagged and TEV protease cleaved PMevDCs and IPKs (solubility); assay type: physicochemical; conditions: FIG. 9
Method: Strains MCM2257, MCM2258, MCM2259, MCM2260, MCM2261, and MCM2262 were inoculated in 1 liter of LB medium containing the appropriate antibiotic and incubated at 34° C. for 7 hours from overnight cultures grown at 34° C. in LB broth containing the appropriate antibiotic (Table 7). Cultures at an OD 0.5-0.7 were induced with 200 μM IPTG. After induction, cells were harvested by centrifugation at 10000×g for 10 minutes. After removal of the supernatant, the cell pellets were resuspended in 40 mL lysis buffer containing 50 mM KPO4, pH 8.0, 0.3 M NaCl, 0.02 mM imidizole, 1 mg/mL lysozyme, and 1 mg/mL DNAase. The cells were lysed using a french pressure cell at 14,000 psi and the cell lysate was centrifuged at 50,000×g for 1 hour. The supernatant was collected, passed over a Ni-affinity resin before the resin was washed with 10 column volumes of lysis buffer containing 50 mM imidazole. The protein was eluted with 5 column volumes of lysis buffer containing 250 mM imidizole. Collected fractions were concentrated and passed over PD-10 columns for buffer exchange and the final collected protein samples were >95% pure according to SDS-PAGE analysis. The purified samples were incubated with TEV protease overnight at 4° C. to remove histidine tags from the purified proteins. The digested samples were subsequently passed over Ni-affinity resin and the flow-through was collected and analyzed by SDS-PAGE.
H. aurantiacus PMevDC (lanes 2 and 3), H. aurantiacus IPK (lanes 4 and 5), and S378Pa3-2 PMevDC (lanes 6 and 7) were all soluble whether they were expressed with an attached His-tag or without a His-Tag (FIG. 9).

[5] = In vitro metabolite measurement, substrate conversion by crude E. coli lysate, substrate MVP; assay type: biochemical; conditions: crude extract from E. coli DH10b overexpressing S378Pa3-2
Method: as §1, §2

[6] = Kinetic characterization of decarboxylases (coupled spectrophotometric assay), phosphomevalonate as substrate; assay type: biochemical; conditions: 34° C., 5 mM ATP, 10-250 μM (R)-phosphomevalonate, * using 1 mM substrate
Method: as §3

[7] = In vitro metabolite measurement, substrate conversion by crude E. coli lysate, substrate IP; assay type: biochemical; conditions: crude extract from E. coli DH10b overexpressing S378Pa3-2
Method: as §1, §2

[8] = system: screening host V. 05; assay: Activity-based screening for PMevDC in MVA-auxotrophic screening host; assay type: cell-based, E. coli; conditions: for growth / complementation of the lower MVA pathway in screening host in presence of MVA: 500 μM MVA
[9] = listed as Herpetosiphon aurantiacus ATCC 23779 PMevDC

Molecule | activity of crude extract on MVPP [1] | kcat ± SD, Diphosphomevalonate [2] | Km [2] [µM] | use of MVA as substrate [3] | solubility of expressed enzyme with or without His-tag [4] | activity of crude extract on MVP [5] | kcat ± SD, Phosphomevalonate [6] | use of IP as substrate [7] | growth / complementation of the lower MVA pathway in screening host in presence of MVA [8] | growth / complementation of the lower MVA pathway in screening host in presence of MVA ([8]; listed as cds#2) | growth in presence of Fosmidomycin ([8]; Fosmidomycin 32 μg/ml, 500 μM MVA supplied) | kcat ± SD, Diphosphomevalonate [2, 9] | kcat ± SD, Phosphomevalonate [6, 9] [s⁻¹]
B1 | some activity on MVPP | 1.09 s⁻¹ and 1.09 ± 0.09 s⁻¹ | 22 | not used as substrates | soluble | activity on MVP | 2.9 s⁻¹ and 2.9 ± 0.5 s⁻¹ | not used as substrates | sustained growth | able to complement the lower MVA pathway | grew unrestricted | – | –
B2 | – | <0.02* s^−1 | – | – | soluble | – | 3.3 ± 0.2 s⁻¹ | – | – | – | – | less than 0.02 s^−1 | 3.3
B3 | – | 11.6 s⁻¹ and 11.6 ± 0.6 s⁻¹ | 44 | – | – | – | – | – | – | – | – | – | –
B4 | – | – | – | – | soluble | – | – | – | – | – | – | – | –
